Experimental data published in patent US20160272683A1 (Novo Nordisk, published 2016).
One block for each binder: values may come before it. Numbered stars: 1 amine (or outer) side, 2 acyl side, 3 side chain; on linkers, the order of the positions; unused ones are H or OH. * marks the point of attachment. C20 diacid = O=C(O)CCCCCCCCCCCCCCCCCCC(=O)*; C18 diacid = O=C(O)CCCCCCCCCCCCCCCCC(=O)*; C16 diacid = O=C(O)CCCCCCCCCCCCCCC(=O)*; γGlu = O=C(O)[C@H](CCC(=O)[*:2])N[*:1]; C14 diacid = O=C(O)CCCCCCCCCCCCC(=O)*; C12 diacid = O=C(O)CCCCCCCCCCC(=O)*; Palmitoyl = CCCCCCCCCCCCCCCC(=O)*; AEEA = NCCOCCOCC(=O)O

Target: T1, human calcitonin receptor (human, UniProt P30988 25-474)
T1 construct: whole, on cells; also called hCT-R; hCTR
T1 sequence (looked up): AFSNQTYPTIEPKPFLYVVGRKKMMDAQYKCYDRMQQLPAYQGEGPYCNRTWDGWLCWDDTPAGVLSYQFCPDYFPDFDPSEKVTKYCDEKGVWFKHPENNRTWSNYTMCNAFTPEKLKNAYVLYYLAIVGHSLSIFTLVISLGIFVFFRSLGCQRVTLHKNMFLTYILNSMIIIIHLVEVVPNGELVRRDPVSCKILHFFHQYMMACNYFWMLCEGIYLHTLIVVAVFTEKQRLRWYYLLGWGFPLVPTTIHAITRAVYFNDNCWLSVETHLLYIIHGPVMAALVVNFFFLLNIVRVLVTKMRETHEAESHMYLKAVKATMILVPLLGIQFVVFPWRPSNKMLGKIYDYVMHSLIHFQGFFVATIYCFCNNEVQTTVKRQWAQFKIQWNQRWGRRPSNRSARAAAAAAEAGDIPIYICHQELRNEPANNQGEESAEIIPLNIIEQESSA
Assay: whole-cell competition vs 125I-human calcitonin (Assay VIIa)
Summary of the method: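 BHK tk'ts 13 cells stably co-expressing human calcitonin receptor and a CRE-luciferase reporter, seeded overnight at 37 °C. Bound tracer counted by scintillation after cold HBSS washes and NaOH/SDS lysis; IC₅₀ from one-site competition fit taken as receptor affinity.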

Binder: {C16 diacid}-EASELSTAALGRLSAELHELATLPRTETGPESP-NH2 (also called Ex. #3) [[N-terminal(C16 diacid)]mimylin]
- IC50: 0.413 nM

Binder: {C14 diacid}-EASELSTAALGRLSAELHELATLPRTETGPESP-NH2 (also called Ex. #4) [[N-terminal(C14 diacid)]mimylin]
- IC50: 1.05 nM

Binder: Palmitoyl-EASELSTAALGRLSAELHELATLPRTETGPESP-NH2 (also called Ex. #7) [[N-terminal(C16)]mimylin]
- IC50: 0.834 nM

Binder: {C14 diacid-γGlu-γGlu-AEEA-AEEA-AEEA-AEEA}-EASELSTAALGRLSAELHELATLPRTETGPESP-NH2 (also called Ex. #5) [[N-terminal(C14 diacid-2xgGlu-4xOEG)]mimylin]
- IC50: 6.51 nM

Binder: {C12 diacid}-EASELSTAALGRLSAELHELATLPRTETGPESP-NH2 (also called Ex. #6) [[N-terminal(C12 diacid)]mimylin]
- IC50: 5.68 nM

Binder: {C20 diacid-γGlu-AEEA-AEEA-AEEA}-ASELSTAALGRLSAELHELATLPRTETGSGSP-NH2 (also called Ex. #43) [[N-terminal(C20 diacid-gGlu-3xOEG), des1, 30S, 31G]mimylin]
- IC50: 0.352 nM

Binder: {C14 diacid-γGlu}-ASELSTAALGRLSAELHELATLPRTETGPESP-NH2 (also called Ex. #19) [[N-terminal(C14 diacid-gGlu), des1]mimylin]
- IC50: 0.515 nM

Second part, the binder after the results:

- IC50: 0.798 nM
B1: [N-terminal(C18 diacid)]mimylin (peptide)
peptide: {C18 diacid}-EASELSTAALGRLSAELHELATLPRTETGPESP-NH2
SMILES: CC(C)C[C@H](NC(=O)[C@H](C)NC(=O)[C@H](C)NC(=O)[C@@H](NC(=O)[C@H](CO)NC(=O)[C@H](CC(C)C)NC(=O)[C@H](CCC(=O)O)NC(=O)[C@H](CO)NC(=O)[C@H](C)NC(=O)[C@H](CCC(=O)O)NC(=O)CCCCCCCCCCCCCCCCC(=O)O)[C@@H](C)O)C(=O)NCC(=O)N[C@@H](CCCNC(=N)N)C(=O)N[C@@H](CC(C)C)C(=O)N[C@@H](CO)C(=O)N[C@@H](C)C(=O)N[C@@H](CCC(=O)O)C(=O)N[C@@H](CC(C)C)C(=O)N[C@@H](Cc1c[nH]cn1)C(=O)N[C@@H](CCC(=O)O)C(=O)N[C@@H](CC(C)C)C(=O)N[C@@H](C)C(=O)N[C@H](C(=O)N[C@@H](CC(C)C)C(=O)N1CCC[C@H]1C(=O)N[C@@H](CCCNC(=N)N)C(=O)N[C@H](C(=O)N[C@@H](CCC(=O)O)C(=O)N[C@H](C(=O)NCC(=O)N1CCC[C@H]1C(=O)N[C@@H](CCC(=O)O)C(=O)N[C@@H](CO)C(=O)N1CCC[C@H]1C(N)=O)[C@@H](C)O)[C@@H](C)O)[C@@H](C)O
notes: also called Ex. #2

- IC50: 2.54 nM
B2: [N-terminal(C20 diacid-gGlu), 1A, 23Y, 30S, 31G]mimylin (peptide)
peptide: {C20 diacid-γGlu}-AASELSTAALGRLSAELHELATYPRTETGSGSP-NH2
SMILES: CC(C)C[C@H](NC(=O)[C@H](C)NC(=O)[C@H](C)NC(=O)[C@@H](NC(=O)[C@H](CO)NC(=O)[C@H](CC(C)C)NC(=O)[C@H](CCC(=O)O)NC(=O)[C@H](CO)NC(=O)[C@H](C)NC(=O)[C@H](C)NC(=O)CC[C@H](NC(=O)CCCCCCCCCCCCCCCCCCC(=O)O)C(=O)O)[C@@H](C)O)C(=O)NCC(=O)N[C@@H](CCCNC(=N)N)C(=O)N[C@@H](CC(C)C)C(=O)N[C@@H](CO)C(=O)N[C@@H](C)C(=O)N[C@@H](CCC(=O)O)C(=O)N[C@@H](CC(C)C)C(=O)N[C@@H](Cc1c[nH]cn1)C(=O)N[C@@H](CCC(=O)O)C(=O)N[C@@H](CC(C)C)C(=O)N[C@@H](C)C(=O)N[C@H](C(=O)N[C@@H](Cc1ccc(O)cc1)C(=O)N1CCC[C@H]1C(=O)N[C@@H](CCCNC(=N)N)C(=O)N[C@H](C(=O)N[C@@H](CCC(=O)O)C(=O)N[C@H](C(=O)NCC(=O)N[C@@H](CO)C(=O)NCC(=O)N[C@@H](CO)C(=O)N1CCC[C@H]1C(N)=O)[C@@H](C)O)[C@@H](C)O)[C@@H](C)O
notes: also called Ex. #57

- IC50: 2.27 nM
B3: [N-terminal(C20 diacid-gGlu), 23Y, 30S, 31G]mimylin (peptide)
peptide: {C20 diacid-γGlu}-EASELSTAALGRLSAELHELATYPRTETGSGSP-NH2
SMILES: CC(C)C[C@H](NC(=O)[C@H](C)NC(=O)[C@H](C)NC(=O)[C@@H](NC(=O)[C@H](CO)NC(=O)[C@H](CC(C)C)NC(=O)[C@H](CCC(=O)O)NC(=O)[C@H](CO)NC(=O)[C@H](C)NC(=O)[C@H](CCC(=O)O)NC(=O)CC[C@H](NC(=O)CCCCCCCCCCCCCCCCCCC(=O)O)C(=O)O)[C@@H](C)O)C(=O)NCC(=O)N[C@@H](CCCNC(=N)N)C(=O)N[C@@H](CC(C)C)C(=O)N[C@@H](CO)C(=O)N[C@@H](C)C(=O)N[C@@H](CCC(=O)O)C(=O)N[C@@H](CC(C)C)C(=O)N[C@@H](Cc1c[nH]cn1)C(=O)N[C@@H](CCC(=O)O)C(=O)N[C@@H](CC(C)C)C(=O)N[C@@H](C)C(=O)N[C@H](C(=O)N[C@@H](Cc1ccc(O)cc1)C(=O)N1CCC[C@H]1C(=O)N[C@@H](CCCNC(=N)N)C(=O)N[C@H](C(=O)N[C@@H](CCC(=O)O)C(=O)N[C@H](C(=O)NCC(=O)N[C@@H](CO)C(=O)NCC(=O)N[C@@H](CO)C(=O)N1CCC[C@H]1C(N)=O)[C@@H](C)O)[C@@H](C)O)[C@@H](C)O
notes: also called Ex. #34

- IC50: 0.59 nM
B4: [N-terminal(C18 diacid-gGlu), des1, 4Q, 16Q, 30S, 31G]mimylin (peptide)
peptide: {C18 diacid-γGlu}-ASQLSTAALGRLSAQLHELATLPRTETGSGSP-NH2
SMILES: CC(C)C[C@H](NC(=O)[C@H](C)NC(=O)[C@H](C)NC(=O)[C@@H](NC(=O)[C@H](CO)NC(=O)[C@H](CC(C)C)NC(=O)[C@H](CCC(N)=O)NC(=O)[C@H](CO)NC(=O)[C@H](C)NC(=O)CC[C@H](NC(=O)CCCCCCCCCCCCCCCCC(=O)O)C(=O)O)[C@@H](C)O)C(=O)NCC(=O)N[C@@H](CCCNC(=N)N)C(=O)N[C@@H](CC(C)C)C(=O)N[C@@H](CO)C(=O)N[C@@H](C)C(=O)N[C@@H](CCC(N)=O)C(=O)N[C@@H](CC(C)C)C(=O)N[C@@H](Cc1c[nH]cn1)C(=O)N[C@@H](CCC(=O)O)C(=O)N[C@@H](CC(C)C)C(=O)N[C@@H](C)C(=O)N[C@H](C(=O)N[C@@H](CC(C)C)C(=O)N1CCC[C@H]1C(=O)N[C@@H](CCCNC(=N)N)C(=O)N[C@H](C(=O)N[C@@H](CCC(=O)O)C(=O)N[C@H](C(=O)NCC(=O)N[C@@H](CO)C(=O)NCC(=O)N[C@@H](CO)C(=O)N1CCC[C@H]1C(N)=O)[C@@H](C)O)[C@@H](C)O)[C@@H](C)O
notes: also called Ex. #87

- IC50: 0.605 nM
B5: [N-terminal(C18 diacid-gGlu), des1, 4Q, 30S, 31G]mimylin (peptide)
peptide: {C18 diacid-γGlu}-ASQLSTAALGRLSAELHELATLPRTETGSGSP-NH2
SMILES: CC(C)C[C@H](NC(=O)[C@H](C)NC(=O)[C@H](C)NC(=O)[C@@H](NC(=O)[C@H](CO)NC(=O)[C@H](CC(C)C)NC(=O)[C@H](CCC(N)=O)NC(=O)[C@H](CO)NC(=O)[C@H](C)NC(=O)CC[C@H](NC(=O)CCCCCCCCCCCCCCCCC(=O)O)C(=O)O)[C@@H](C)O)C(=O)NCC(=O)N[C@@H](CCCNC(=N)N)C(=O)N[C@@H](CC(C)C)C(=O)N[C@@H](CO)C(=O)N[C@@H](C)C(=O)N[C@@H](CCC(=O)O)C(=O)N[C@@H](CC(C)C)C(=O)N[C@@H](Cc1c[nH]cn1)C(=O)N[C@@H](CCC(=O)O)C(=O)N[C@@H](CC(C)C)C(=O)N[C@@H](C)C(=O)N[C@H](C(=O)N[C@@H](CC(C)C)C(=O)N1CCC[C@H]1C(=O)N[C@@H](CCCNC(=N)N)C(=O)N[C@H](C(=O)N[C@@H](CCC(=O)O)C(=O)N[C@H](C(=O)NCC(=O)N[C@@H](CO)C(=O)NCC(=O)N[C@@H](CO)C(=O)N1CCC[C@H]1C(N)=O)[C@@H](C)O)[C@@H](C)O)[C@@H](C)O
notes: also called Ex. #78
